Test results published in US11034762 (CENTIVAX, dated 2021).

T1: MERS Receptor Binding Domain (RBD) protein (MERS virus, UniProt K9N5Q8 367-606)
T1 construct: also called Middle East Respiratory Syndrome (MERS) virus
T1 sequence: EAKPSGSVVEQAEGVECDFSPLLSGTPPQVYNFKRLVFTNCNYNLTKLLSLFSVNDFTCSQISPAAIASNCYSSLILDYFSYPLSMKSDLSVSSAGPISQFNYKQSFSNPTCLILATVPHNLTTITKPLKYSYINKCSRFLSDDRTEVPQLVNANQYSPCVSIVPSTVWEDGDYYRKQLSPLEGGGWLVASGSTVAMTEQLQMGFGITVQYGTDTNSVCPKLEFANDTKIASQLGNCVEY


Experiments:
[1] = target: SARS-CoV-2 Receptor Binding Domain (RBD) protein (SARS-CoV-2, UniProt P0DTC2 319-541)
[2] = target: T1, MERS Receptor Binding Domain (RBD) …; assay: SPR; clone listed as COV2 only at the 21st table, row 52, column 3
[3] = target: T2, SARS-CoV-1 Receptor Binding Domain (RBD) protein (SARS-CoV-1, UniProt P59594 306-527); assay: as above
T2 construct: also called SARS1

[4] = target: T1, MERS Receptor Binding Domain (RBD) …; assay: SPR; clone listed as COV2 only at the 21st table, row 36, column 3
[5] = target: T2, SARS-CoV-1 Receptor Binding Domain …; assay: as above
[6] = target: T1, MERS Receptor Binding Domain (RBD) …; assay: SPR; clone listed as COV2 only at the 21st table, row 37, column 3
[7] = target: T2, SARS-CoV-1 Receptor Binding Domain …; assay: as above
[8] = target: T1, MERS Receptor Binding Domain (RBD) …; assay: SPR; clone listed as COV2 only at the 21st table, row 45, column 3
[9] = target: T2, SARS-CoV-1 Receptor Binding Domain …; assay: as above
[10] = target: T1, MERS Receptor Binding Domain (RBD) …; assay: SPR; clone listed as COV2 only at the 21st table, row 51, column 3
[11] = target: T2, SARS-CoV-1 Receptor Binding Domain …; assay: as above
[12] = target: T1, MERS Receptor Binding Domain (RBD) …; assay: SPR; clone listed as COV2 only at the 21st table, row 43, column 3
[13] = target: T2, SARS-CoV-1 Receptor Binding Domain …; assay: as above

Binder | Kd [1] [nM] | koff [1] [s⁻¹] | kon [1] [M⁻¹ s⁻¹] | other results
COVID19_P22_C09 (scFv, V domains shown) VH: QVQLVQSGAEVKKPGSSVKVSCKASGYNFTDYHIQWVRQAPGQGLEWVGMIIPRHGGTAYAQRFQGRVTITADESTSTAYMELSSLRSEDTAVYYCAGGSGLTTPMDVWGQGTLVTVSS VL: not shown | 32.8 | 0.0083 | 250000 | binding result [2]: no binding (tested: up to 300 nM); binding result [3]: no binding (tested: up to 300 nM)
COVID19_P09_A09 (scFv, V domains shown) VH: QVQLVQSGAEVKKPGSSVKVSCKASGGTFSSYAISWVRQAPGQGLEWMGIIYPGDSTTRYSQKFQGRVTITADESTSTAYMELSSLRSEDTAVYYCYSGSGISTPMDVWGQGTLVTVSS VL: not shown | 0.5 | 5.7e-05 | 109000 | binding result [4]: no binding (tested: up to 300 nM); binding result [5]: no binding (tested: up to 300 nM)
COVID19_P22_B12 (scFv, V domains shown) VH: QVQLVQSGAEVKKPGSSVKVSCKASGGTLSSYAISWVRQAPGQGLEWMGIIYPGDSETRYSQKFQGRVTITADESTSTAYMELSSLRSEDTAVYYCAGGSGISTPRSVWGQGTLVTVSS VL: DIVMTQSPDSLAVSLGERATINCKSSRILSYSPDNKNYLAWYQQKPGQPPKLLIYWASTRESGVPDRFSGSGSGTDFTLTISSLQAEDVAVYYCQQSYITPYTFGGGTKVEIKR | 4.24 | 0.00036 | 85000 | binding result [6]: no binding (tested: up to 300 nM); binding result [7]: no binding (tested: up to 300 nM)
COVID19_P09_D06 (scFv, V domains shown) VH: QVQLVQSGAEVKKPGSSVKVSCKASGYGFITYWIGWVRQAPGQGLEWMGIIYPGDSETRYAQKFQGRVTITADESTSTAYMELSSLRSEDTAVYYCAGGSGIYVPMDVWGQGTLVTVSS VL: not shown | 16.4 | 0.00538 | 328000 | binding result [8]: no binding (tested: up to 300 nM); binding result [9]: no binding (tested: up to 300 nM)
COVID19_P21_H01 (scFv, V domains shown) VH: QVQLVQSGAEVKKPGSSVKVSCKASGYGFSTYWIGWVRQAPGQGLEWMGWINPNSGGTNYAQKFQGRVTITADESTSTAYMELSSLRSEDTAVYYCAGGSGISTPMDVWGQGTLVTVSS VL: not shown | 1.38 | 0.00022 | 160000 | binding result [10]: no binding (tested: up to 300 nM); binding result [11]: no binding (tested: up to 300 nM)
COVID19_P22_B04 (scFv, V domains shown) VH: QVQLVQSGAEVKKPGSSVKVSCKASGYGFITYWIGWVRQAPGQGLEWMGIIYPGDSETRYAQKFQGRVTITADESTSTAYMELSSLRSEDTAVYYCAGGEGISTPMDVWGQGTLVTVSS VL: not shown | 26.1 | 0.015 | 570000 | binding result [12]: no binding (tested: up to 300 nM); binding result [13]: no binding (tested: up to 300 nM)
